The source of these data is PMC12753876.

The target in experiment [1] is HsFA3 E188R in pGBKT7 (BD) (UniProt Q8GYY1). The experiment can be described thus: yeast two-hybrid (beta-galactosidase, Miller units). As to conditions: n=3; parent: est. 270; read off a plot.
Experiment [2] concerns the target HsFA1e^R126E in pGBKT7 (BD) (Arabidopsis thaliana) (UniProt Q9SCW5). Description: two-hybrid; CRY1 as prey in pGADT7 (AD), HsF as bait in pGBKT7 (BD), co-transformed into yeast Y187; liquid beta-galactosidase assay with CPRG, Miller units; not detected (ND) if OD578 <0.01 after 3 h of color development.
Experiment [3] deals with HsFA3 E188R in pGBKT7 (BD) (Arabidopsis thaliana) (UniProt Q8GYY1). The experiment is described as above.
HsFA3 E188R in pGBKT7 (BD) (Arabidopsis thaliana), sequence (Q8GYY1 whole entry E188R): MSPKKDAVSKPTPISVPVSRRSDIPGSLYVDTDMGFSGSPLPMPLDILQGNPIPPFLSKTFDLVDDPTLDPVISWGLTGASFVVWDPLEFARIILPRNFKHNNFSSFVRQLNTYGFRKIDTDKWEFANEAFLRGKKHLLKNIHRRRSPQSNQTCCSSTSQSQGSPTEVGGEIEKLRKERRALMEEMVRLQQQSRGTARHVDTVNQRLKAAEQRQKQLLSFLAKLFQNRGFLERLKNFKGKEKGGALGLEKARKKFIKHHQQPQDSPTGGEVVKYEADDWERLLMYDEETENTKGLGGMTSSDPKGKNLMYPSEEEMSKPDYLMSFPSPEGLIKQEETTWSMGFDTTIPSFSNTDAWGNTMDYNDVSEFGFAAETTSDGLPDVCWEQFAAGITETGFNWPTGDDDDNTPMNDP

HsFA3 E188R in pGBKT7 (BD), sequence (Q8GYY1 whole entry E188R): as above
CRY1^(PHR WT) in pGADT7 (AD), sequence (Q43125 1-508): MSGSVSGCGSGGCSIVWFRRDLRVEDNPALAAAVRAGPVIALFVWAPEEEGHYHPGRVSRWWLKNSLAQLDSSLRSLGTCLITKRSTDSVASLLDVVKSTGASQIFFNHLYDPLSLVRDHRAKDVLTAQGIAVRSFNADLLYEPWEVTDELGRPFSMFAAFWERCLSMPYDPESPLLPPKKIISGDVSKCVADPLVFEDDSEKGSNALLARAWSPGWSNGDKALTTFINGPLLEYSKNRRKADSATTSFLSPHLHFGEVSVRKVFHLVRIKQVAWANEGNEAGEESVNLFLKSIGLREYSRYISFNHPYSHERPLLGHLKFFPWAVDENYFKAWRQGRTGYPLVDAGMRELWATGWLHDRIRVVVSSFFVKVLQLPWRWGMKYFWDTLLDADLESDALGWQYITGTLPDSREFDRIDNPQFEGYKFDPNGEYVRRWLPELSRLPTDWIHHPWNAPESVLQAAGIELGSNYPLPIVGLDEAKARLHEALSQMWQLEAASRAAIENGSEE
HsFA1e^R126E in pGBKT7 (BD) (Arabidopsis thaliana), sequence (Q9SCW5 whole entry, stated change not applied): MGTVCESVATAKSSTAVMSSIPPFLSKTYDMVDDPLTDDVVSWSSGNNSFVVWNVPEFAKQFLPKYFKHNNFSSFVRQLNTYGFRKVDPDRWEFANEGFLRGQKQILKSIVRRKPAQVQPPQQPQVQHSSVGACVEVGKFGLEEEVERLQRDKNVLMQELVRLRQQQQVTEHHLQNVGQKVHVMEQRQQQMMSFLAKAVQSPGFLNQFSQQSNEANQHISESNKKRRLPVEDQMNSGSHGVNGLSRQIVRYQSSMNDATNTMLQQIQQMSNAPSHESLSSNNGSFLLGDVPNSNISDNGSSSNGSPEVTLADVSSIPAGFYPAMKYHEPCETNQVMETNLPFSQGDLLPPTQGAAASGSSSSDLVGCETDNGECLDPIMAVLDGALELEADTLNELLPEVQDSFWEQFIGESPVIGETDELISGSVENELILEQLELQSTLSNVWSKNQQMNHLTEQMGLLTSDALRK

Regarding “m1; m17 CRY1:R211E; CRY1:R435E; HsFA3:E188R”, in experiment [1], the response worked out at 300 Miller Units. “CRY1^(PHR WT) in pGADT7 (AD) (from UniProt Q43125 1-508) (domain or fragment)” displayed a fold increase of Y2H interaction relative to WT in experiment [2] of 40 fold. This substance also showed a reduction of Y2H interaction relative to WT in experiment [3] of 0.33.

Consider m1; m17 CRY1:R211E; HsFA3:E188R, for which, in experiment [1], the response came out at 90 Miller Units. The same measure, in the same setting: to m1; m17 CRY1:R435E; HsFA3:E188R belongs 170 Miller Units.
